Experimental data published in PMC9250616 (2022).

Target: T1, Protective antigen (Bacillus anthracis, UniProt P13423)
T1 chain: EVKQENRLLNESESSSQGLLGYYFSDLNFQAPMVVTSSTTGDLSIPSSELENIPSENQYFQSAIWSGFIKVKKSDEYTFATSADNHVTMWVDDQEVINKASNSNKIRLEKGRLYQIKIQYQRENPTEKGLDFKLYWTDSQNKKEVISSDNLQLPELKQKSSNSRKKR

B1: CMG2 (protein)
chain: QEQPSCRRAFDLYFVLDKSGSVANNWIEIYNFVQQLAERFVSPEMRLSFIVFSSQATIILPLTGDRGKISKGLEDLKRVSPVGETYIHEGLKLANEQIQKAGGLKTSSIIIALTDGKLDGLVPSYAEKEAKISRSLGASVYCVGVLDFEQAQLERIADSKEQVFPVKGGFQALKGIINSILAQSCTEILELQPSSVCVGEEFQIVLSGRGFMLGSRNGSVLCTYTVNETYTTSVKPVSVQLNSMLCPAPILNKAGETLDVSVSFNGGKSVISGSLIVTATECSNG
For B1, the Kd was 0.46 nM.
